What was measured:
[1] = molecular target: T1, albumin in human blood plasma (Homo sapiens, UniProt P02768); test: Albumin-bound fraction, ultrafiltration filter assay, human blood plasma; assay type: in vitro ADME; settings: 37° C., 30 min, percentage of total activity measured
T1 construct: tissue Stiftung Blutspende SRK Aargau-Solothurn, Switzerland; host or cells: human blood plasma
Method: (§1) Albumin-binding properties were determined in mouse and human blood plasma. The albumin-binding properties of the folate radioconjugates of the disclosure in mouse blood plasma (Rockland Immunochemicals, Inc., USA) and human blood plasma (Stiftung Blutspende SRK Aargau-Solothurn, Switzerland) were determined using an ultrafiltration method (Deberle, L. M. et al., Molecules 2020, 25, (11)). The amount of serum albumin in mouse (MSA) and human (HSA) blood plasma was defined as 550 μM and 800 μM, respectively, based on measurements using a dry chemistry analyzer (DRI-CHEM 4000i, FUJIFILM, Japan). The folate radioconjugates of the disclosure (50 MBq/nmol, ca. 300 kBq, 0.006 nmol in 15 μL) were added to samples of mouse and human blood plasma (150 μL), followed by incubation of the samples at 37° C. for 30 min. The samples were loaded on Amicon centrifugal filters (cut-off of 10 kDa; Merck Millipore) followed by centrifugation (14,000 rcf, 30 min, 4° C.) to allow the separation of the plasma-bound from the plasma-unbound (free) fractions of each sample. […] The activity of the protein-bound fraction as well as the activity in the filtrate and in the filter unit were measured separately in a gamma-counter (Perkin Elmer, Wallac Wizard 1480). The percentage of radioconjugate bound to mouse and human albumin, respectively, was set in relation to the total activity measured (Table 4).

[2] = molecular target: T2, albumin in mouse blood plasma (Mus musculus, UniProt P07724); test: Albumin-bound fraction, ultrafiltration filter assay, mouse blood plasma; assay type: in vitro ADME; settings: 37° C., 30 min, percentage of total activity measured
T2 construct: tissue Rockland Immunochemicals, Inc., USA; host or cells: mouse blood plasma
Method: as §1

[3] = molecular target: T3, human serum albumin (HSA) (Homo sapiens, UniProt P02768); test: Relative albumin-binding affinity (B50), human blood plasma; assay type: in vitro ADME; settings: inverse ratio of B50, normalized to [^177Lu]Lu-OxFol-1 (set as 1.0)
T3 construct: tissue Stiftung Blutspende SRK Aargau-Solothurn, Switzerland; host or cells: human blood plasma
Method: (§2) Relative albumin-binding affinity of the folate radioconjugates of the disclosure: The albumin-binding affinity of the folate radioconjugates of the disclosure was assessed and compared to that of [^177Lu]Lu-OxFol-1. A fixed amount of radioconjugate (50 MBq/nmol), ^˜300 kBq, 15 μL, 0.006 nmol) was added to a defined volume (150 μL) of mouse and human blood plasma and various dilutions thereof in PBS pH 7.4, resulting in defined mouse serum albumin (MSA)-to-folate radioconjugate or human serum albumin (HSA)-to-folate radioconjugate molar concentration ratios ranging from 0.01 to 12′500 and 0.01 to 20′000, respectively. The albumin-bound fraction was determined using an ultrafiltration device as described above.
(§3) The data were analyzed using a semi-logarithmic plot assuming a maximum binding of 100%. The Hill equation was fitted to the data points and the half-maximum binding (B50) was determined based on the obtained binding curves (GraphPad Prism software, version 8). The relative albumin-binding affinities were defined as the inverse ratio of the B50 value of each radioconjugate of the disclosure to the reference compound [^177Lu]Lu-OxFol-1 (set as 1.0). […] The results were presented as average±SD of 2-3 independent experiments (Table 5).

[4] = n-octanol/PBS distribution coefficient (log D); assay type: physicochemical; settings: n-octanol/PBS pH 7.4, mean±SD
Method: Example 5: PBS/n-Octanol Distribution Coefficient (Log D Values) The n-octanol/PBS distribution coefficients (log D values) were determined for each folate radioconjugate of the disclosure and a reference compound in order to assess their hydrophilic/hydrophobic properties. The log D values of the folate radioconjugates of the disclosure (50 MBq/nmol) were determined as previously reported, after dilution in PBS pH 7.4 to obtain an activity concentration of 10 MBq/500 μL. A sample of each radiofolate (ca. 0.5 MBq, 25 μL, 0.01 nmol) was added to a mixture of 1475 μL PBS pH 7.4 and 1500 μL n-octanol. The vials were vortexed vigorously for 1 min followed by centrifugation for 6 min at 2500 rpm for phase separation. An aliquot was taken from each phase and measured in a gamma-counter (Perkin Elmer, Wallac Wizard 1480). The distribution coefficients were calculated as the logarithm of the ratio of counts per minute (cpm) measured in the n-octanol phase relative to the cpm measured in the PBS phase. The results were listed as mean±SD of the data obtained from 3-4 independent experiments, each performed with five replicates.

FR = molecular target: T4, FR (Homo sapiens, UniProt P15328); test: FR-binding affinity (KD) on FR-positive IGROV-1 cells; settings: 1 h at 4° C., specific binding (excess folic acid block)
T4 construct: FR-positive IGROV-1 cells (human ovarian carcinoma cell line); endogenous in cells; host or cells: IGROV-1 human ovarian carcinoma cells
Method: The determination of the KD values was performed as previously reported (Deberle, L. M. et al; Bioconj Chem 2021, 32, p. 1617). FR-positive IGROV-1 cells (human ovarian carcinoma cell line, kindly provided by Dr. Gerrit Janssen, Free University Medical Center Amsterdam, The Netherlands) were seeded in 48-well plates (2.5×10^5 cells/well) in 500 μL FFRPMI medium with supplements. The cells were incubated at 37° C. and 5% CO2 to allow cell adhesion overnight. The experiment was performed on ice using ice-cold medium and buffer solutions. After removal of the supernatant, the cells were rinsed once with PBS prior to the addition of FFRPMI medium without supplements (450 μL/well). The respective folate radioconjugate of the disclosure (20 MBq/nmol) was added to each well at variable concentrations (in the range of 0.1 to 500 nM, 50 μL per well). […] The IGROV-1 tumor cells were incubated for 1 h at 4° C. on a shaker, followed by removal of the supernatants and rinsing the cells twice with PBS. After lysis of the cells with NaOH solution (1 M, aq., 500 μL), the samples were counted for activity in a γ-counter (Wallac Wizard 1480, Perkin Elmer). The counts per minute (cpm) of the specific binding (determined by subtracting the cpm of the unspecific binding from the cpm of total binding), were plotted against the molar concentration of the added folate radioconjugates of the disclosure. […]

[5] = molecular target: T5, mouse serum albumin (MSA) (Mus musculus, UniProt P07724); test: Relative albumin-binding affinity (B50), mouse blood plasma; assay type: in vitro ADME; settings: inverse ratio of B50, normalized to [^177Lu]Lu-OxFol-1 (set as 1.0)
T5 construct: The amount of serum albumin in mouse (MSA) and human (HSA) blood plasma was defined as 550 μM and 800 μM; tissue Rockland Immunochemicals, Inc., USA; host or cells: mouse blood plasma
Method: as §2, §3

T3 sequence (P02768 25-609): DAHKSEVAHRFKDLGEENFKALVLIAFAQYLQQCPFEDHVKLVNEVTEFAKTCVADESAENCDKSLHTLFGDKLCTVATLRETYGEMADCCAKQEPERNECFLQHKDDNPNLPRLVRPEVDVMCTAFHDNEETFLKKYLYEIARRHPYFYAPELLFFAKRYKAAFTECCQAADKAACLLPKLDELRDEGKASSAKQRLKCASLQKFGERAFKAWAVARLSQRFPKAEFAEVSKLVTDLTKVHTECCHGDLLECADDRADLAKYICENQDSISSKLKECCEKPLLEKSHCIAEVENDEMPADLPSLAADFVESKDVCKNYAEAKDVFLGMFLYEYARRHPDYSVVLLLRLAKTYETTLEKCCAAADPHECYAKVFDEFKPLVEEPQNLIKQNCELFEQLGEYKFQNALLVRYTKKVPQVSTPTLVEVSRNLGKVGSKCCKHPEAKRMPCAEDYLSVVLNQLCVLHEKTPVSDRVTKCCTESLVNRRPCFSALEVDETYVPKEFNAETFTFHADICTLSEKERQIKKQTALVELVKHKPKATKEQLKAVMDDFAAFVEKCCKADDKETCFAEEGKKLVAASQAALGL
T1 sequence (P02768 25-609): as above
T4 sequence (P15328 25-234): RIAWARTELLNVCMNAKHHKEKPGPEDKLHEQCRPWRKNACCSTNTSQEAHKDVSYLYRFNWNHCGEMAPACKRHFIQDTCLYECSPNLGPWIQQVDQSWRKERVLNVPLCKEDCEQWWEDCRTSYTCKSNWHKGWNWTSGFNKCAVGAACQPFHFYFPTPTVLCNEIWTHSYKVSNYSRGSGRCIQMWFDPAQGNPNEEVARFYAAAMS
T2 sequence (P07724 25-608): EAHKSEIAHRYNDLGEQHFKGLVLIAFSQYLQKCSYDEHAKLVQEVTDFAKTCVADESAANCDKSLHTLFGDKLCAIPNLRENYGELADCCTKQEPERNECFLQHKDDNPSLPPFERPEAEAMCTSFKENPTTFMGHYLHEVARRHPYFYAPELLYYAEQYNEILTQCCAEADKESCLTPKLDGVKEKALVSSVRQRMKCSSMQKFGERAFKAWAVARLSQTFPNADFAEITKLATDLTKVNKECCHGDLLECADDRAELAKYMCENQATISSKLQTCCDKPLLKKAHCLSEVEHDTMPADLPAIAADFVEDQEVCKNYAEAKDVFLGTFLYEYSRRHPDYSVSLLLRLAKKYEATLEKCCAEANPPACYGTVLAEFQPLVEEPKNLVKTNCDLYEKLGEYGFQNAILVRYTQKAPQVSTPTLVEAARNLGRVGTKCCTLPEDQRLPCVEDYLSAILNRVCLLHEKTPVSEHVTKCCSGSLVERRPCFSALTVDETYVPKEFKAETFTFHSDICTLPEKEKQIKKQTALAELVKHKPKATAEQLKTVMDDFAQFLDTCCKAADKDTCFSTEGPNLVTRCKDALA
T5 sequence (P07724 25-608): as above

Question: Which “Albumin-bound fraction, human blood plasma” value [1] does the source give for Nc1nc2ncc(CNc3ccc(C(=O)N[C@@H](CCC(=O)N[C@@H](CCCCNC(=O)CN4CCN(CC(=O)O)CCN(CC(=O)O)CCN(CC(=O)O)CC4)C(=O)N[C@@H](CCCCNC(=O)CCCc4ccc(I)cc4)C(=O)O)C(=O)O)cc3)nc2c(=O)[nH]1 [[^177Lu]Lu-OxFol-1, metal not drawn] here?
Answer: The value was 96%.

Question: And the “Albumin-bound fraction, mouse blood plasma” value [2]?
Answer: Its value is 90%.

Question: And the “Relative albumin-binding affinity, human plasma” value [3]?
Answer: Its value is 1.00.

Question: What about the “logD Value” [4] of the same compound?
Answer: The value was −4.2 ± 0.2.

Question: What about the Kd (FR) of the same compound?
Answer: The Kd was 2.8 nM.

Question: And the “Relative albumin-binding affinity, mouse plasma” value [5]?
Answer: The value was 1.00.
